Source: the Human Domainome abundance scans (Beltran et al. 2025)
± gives the uncertainty stated by the source.

B1: Retinoic acid receptor beta, residues 85 to 161; numbered along this chain, P10826 (parent)
chain: YKPCFVCQDKSSGYHYGVSACEGCKGFFRRSIQKNMIYTCHRDKNCVINKVTRNRCQYCRLQKCFEVGMSKESVRND

Variants of: B1
Assay: abundance fitness (aPCA) (normalised: wild type 0, dead -1); higher = more abundant; growth selection in yeast, the domain comes from the species named
Conditions: Homo sapiens

Row | Variant | abundance fitness
1 | YKPQFVCQDKSSGYHYGVSACEGCKGFFRRSIQKNMIYTCHRDKNCVINKVTRNRCQYCRLQKCFEVGMSKESVRND | -0.889 ± 0.27
2 | YKPVFVCQDKSSGYHYGVSACEGCKGFFRRSIQKNMIYTCHRDKNCVINKVTRNRCQYCRLQKCFEVGMSKESVRND | -0.807 ± 0.12
3 | YKPYFVCQDKSSGYHYGVSACEGCKGFFRRSIQKNMIYTCHRDKNCVINKVTRNRCQYCRLQKCFEVGMSKESVRND | -0.592 ± 0.14
4 | YKPLFVCQDKSSGYHYGVSACEGCKGFFRRSIQKNMIYTCHRDKNCVINKVTRNRCQYCRLQKCFEVGMSKESVRND | -0.778 ± 0.11
5 | YKPAFVCQDKSSGYHYGVSACEGCKGFFRRSIQKNMIYTCHRDKNCVINKVTRNRCQYCRLQKCFEVGMSKESVRND | -0.691 ± 0.14
6 | YKPWFVCQDKSSGYHYGVSACEGCKGFFRRSIQKNMIYTCHRDKNCVINKVTRNRCQYCRLQKCFEVGMSKESVRND | -0.954 ± 0.22
7 | YKPTFVCQDKSSGYHYGVSACEGCKGFFRRSIQKNMIYTCHRDKNCVINKVTRNRCQYCRLQKCFEVGMSKESVRND | -1.26 ± 0.39
8 | YKPNFVCQDKSSGYHYGVSACEGCKGFFRRSIQKNMIYTCHRDKNCVINKVTRNRCQYCRLQKCFEVGMSKESVRND | -0.731 ± 0.43
9 | YKPRFVCQDKSSGYHYGVSACEGCKGFFRRSIQKNMIYTCHRDKNCVINKVTRNRCQYCRLQKCFEVGMSKESVRND | -0.827 ± 0.088
10 | YKPIFVCQDKSSGYHYGVSACEGCKGFFRRSIQKNMIYTCHRDKNCVINKVTRNRCQYCRLQKCFEVGMSKESVRND | -0.917 ± 0.42
11 | YKPMFVCQDKSSGYHYGVSACEGCKGFFRRSIQKNMIYTCHRDKNCVINKVTRNRCQYCRLQKCFEVGMSKESVRND | -0.754 ± 0.16
12 | YKPPFVCQDKSSGYHYGVSACEGCKGFFRRSIQKNMIYTCHRDKNCVINKVTRNRCQYCRLQKCFEVGMSKESVRND | -0.428 ± 0.11
13 | YKPFFVCQDKSSGYHYGVSACEGCKGFFRRSIQKNMIYTCHRDKNCVINKVTRNRCQYCRLQKCFEVGMSKESVRND | -0.687 ± 0.25
14 | YKPDFVCQDKSSGYHYGVSACEGCKGFFRRSIQKNMIYTCHRDKNCVINKVTRNRCQYCRLQKCFEVGMSKESVRND | -0.715 ± 0.17
15 | YKPGFVCQDKSSGYHYGVSACEGCKGFFRRSIQKNMIYTCHRDKNCVINKVTRNRCQYCRLQKCFEVGMSKESVRND | -0.859 ± 0.096
16 | YEPCFVCQDKSSGYHYGVSACEGCKGFFRRSIQKNMIYTCHRDKNCVINKVTRNRCQYCRLQKCFEVGMSKESVRND | -0.285 ± 0.081
17 | YVPCFVCQDKSSGYHYGVSACEGCKGFFRRSIQKNMIYTCHRDKNCVINKVTRNRCQYCRLQKCFEVGMSKESVRND | -0.104 ± 0.052
18 | YIPCFVCQDKSSGYHYGVSACEGCKGFFRRSIQKNMIYTCHRDKNCVINKVTRNRCQYCRLQKCFEVGMSKESVRND | -0.144 ± 0.093
19 | YYPCFVCQDKSSGYHYGVSACEGCKGFFRRSIQKNMIYTCHRDKNCVINKVTRNRCQYCRLQKCFEVGMSKESVRND | -0.1 ± 0.092
20 | YGPCFVCQDKSSGYHYGVSACEGCKGFFRRSIQKNMIYTCHRDKNCVINKVTRNRCQYCRLQKCFEVGMSKESVRND | -0.182 ± 0.05
21 | YDPCFVCQDKSSGYHYGVSACEGCKGFFRRSIQKNMIYTCHRDKNCVINKVTRNRCQYCRLQKCFEVGMSKESVRND | 0.017 ± 0.088
22 | YQPCFVCQDKSSGYHYGVSACEGCKGFFRRSIQKNMIYTCHRDKNCVINKVTRNRCQYCRLQKCFEVGMSKESVRND | 0.052 ± 0.073
23 | YAPCFVCQDKSSGYHYGVSACEGCKGFFRRSIQKNMIYTCHRDKNCVINKVTRNRCQYCRLQKCFEVGMSKESVRND | -0.289 ± 0.082
24 | YWPCFVCQDKSSGYHYGVSACEGCKGFFRRSIQKNMIYTCHRDKNCVINKVTRNRCQYCRLQKCFEVGMSKESVRND | -0.308 ± 0.093

Row | Variant | abundance fitness
25 | YPPCFVCQDKSSGYHYGVSACEGCKGFFRRSIQKNMIYTCHRDKNCVINKVTRNRCQYCRLQKCFEVGMSKESVRND | -0.169 ± 0.11
26 | YHPCFVCQDKSSGYHYGVSACEGCKGFFRRSIQKNMIYTCHRDKNCVINKVTRNRCQYCRLQKCFEVGMSKESVRND | 0.091 ± 0.11
27 | YMPCFVCQDKSSGYHYGVSACEGCKGFFRRSIQKNMIYTCHRDKNCVINKVTRNRCQYCRLQKCFEVGMSKESVRND | -0.074 ± 0.073
28 | YNPCFVCQDKSSGYHYGVSACEGCKGFFRRSIQKNMIYTCHRDKNCVINKVTRNRCQYCRLQKCFEVGMSKESVRND | 0.162 ± 0.065
29 | YRPCFVCQDKSSGYHYGVSACEGCKGFFRRSIQKNMIYTCHRDKNCVINKVTRNRCQYCRLQKCFEVGMSKESVRND | -0.282 ± 0.057
30 | YLPCFVCQDKSSGYHYGVSACEGCKGFFRRSIQKNMIYTCHRDKNCVINKVTRNRCQYCRLQKCFEVGMSKESVRND | -0.162 ± 0.064
31 | YFPCFVCQDKSSGYHYGVSACEGCKGFFRRSIQKNMIYTCHRDKNCVINKVTRNRCQYCRLQKCFEVGMSKESVRND | -0.266 ± 0.29
32 | YSPCFVCQDKSSGYHYGVSACEGCKGFFRRSIQKNMIYTCHRDKNCVINKVTRNRCQYCRLQKCFEVGMSKESVRND | -0.068 ± 0.057
33 | YKPCFACQDKSSGYHYGVSACEGCKGFFRRSIQKNMIYTCHRDKNCVINKVTRNRCQYCRLQKCFEVGMSKESVRND | -0.711 ± 0.1
34 | YKPCFCCQDKSSGYHYGVSACEGCKGFFRRSIQKNMIYTCHRDKNCVINKVTRNRCQYCRLQKCFEVGMSKESVRND | -0.995 ± 0.27
35 | YKPCFECQDKSSGYHYGVSACEGCKGFFRRSIQKNMIYTCHRDKNCVINKVTRNRCQYCRLQKCFEVGMSKESVRND | -1.02 ± 0.23
36 | YKPCFFCQDKSSGYHYGVSACEGCKGFFRRSIQKNMIYTCHRDKNCVINKVTRNRCQYCRLQKCFEVGMSKESVRND | -0.374 ± 0.15
37 | YKECFVCQDKSSGYHYGVSACEGCKGFFRRSIQKNMIYTCHRDKNCVINKVTRNRCQYCRLQKCFEVGMSKESVRND | 0.136 ± 0.055
38 | YKCCFVCQDKSSGYHYGVSACEGCKGFFRRSIQKNMIYTCHRDKNCVINKVTRNRCQYCRLQKCFEVGMSKESVRND | -0.101 ± 0.094
39 | YKDCFVCQDKSSGYHYGVSACEGCKGFFRRSIQKNMIYTCHRDKNCVINKVTRNRCQYCRLQKCFEVGMSKESVRND | 0.225 ± 0.089
40 | YKQCFVCQDKSSGYHYGVSACEGCKGFFRRSIQKNMIYTCHRDKNCVINKVTRNRCQYCRLQKCFEVGMSKESVRND | 0.079 ± 0.056
41 | YKFCFVCQDKSSGYHYGVSACEGCKGFFRRSIQKNMIYTCHRDKNCVINKVTRNRCQYCRLQKCFEVGMSKESVRND | 0.037 ± 0.14
42 | YKYCFVCQDKSSGYHYGVSACEGCKGFFRRSIQKNMIYTCHRDKNCVINKVTRNRCQYCRLQKCFEVGMSKESVRND | 0.174 ± 0.11
43 | YKSCFVCQDKSSGYHYGVSACEGCKGFFRRSIQKNMIYTCHRDKNCVINKVTRNRCQYCRLQKCFEVGMSKESVRND | 0.031 ± 0.055
44 | YKRCFVCQDKSSGYHYGVSACEGCKGFFRRSIQKNMIYTCHRDKNCVINKVTRNRCQYCRLQKCFEVGMSKESVRND | -0.321 ± 0.051
45 | YKLCFVCQDKSSGYHYGVSACEGCKGFFRRSIQKNMIYTCHRDKNCVINKVTRNRCQYCRLQKCFEVGMSKESVRND | 0.027 ± 0.048
46 | YKKCFVCQDKSSGYHYGVSACEGCKGFFRRSIQKNMIYTCHRDKNCVINKVTRNRCQYCRLQKCFEVGMSKESVRND | 0.048 ± 0.066
47 | YKNCFVCQDKSSGYHYGVSACEGCKGFFRRSIQKNMIYTCHRDKNCVINKVTRNRCQYCRLQKCFEVGMSKESVRND | 0.162 ± 0.092
48 | YKACFVCQDKSSGYHYGVSACEGCKGFFRRSIQKNMIYTCHRDKNCVINKVTRNRCQYCRLQKCFEVGMSKESVRND | 0.064 ± 0.043

Row | Variant | abundance fitness
49 | YKVCFVCQDKSSGYHYGVSACEGCKGFFRRSIQKNMIYTCHRDKNCVINKVTRNRCQYCRLQKCFEVGMSKESVRND | -0.023 ± 0.051
50 | YKWCFVCQDKSSGYHYGVSACEGCKGFFRRSIQKNMIYTCHRDKNCVINKVTRNRCQYCRLQKCFEVGMSKESVRND | -0.223 ± 0.064
51 | YKICFVCQDKSSGYHYGVSACEGCKGFFRRSIQKNMIYTCHRDKNCVINKVTRNRCQYCRLQKCFEVGMSKESVRND | -0.042 ± 0.17
52 | YKHCFVCQDKSSGYHYGVSACEGCKGFFRRSIQKNMIYTCHRDKNCVINKVTRNRCQYCRLQKCFEVGMSKESVRND | 0.006 ± 0.088
53 | YKPCTVCQDKSSGYHYGVSACEGCKGFFRRSIQKNMIYTCHRDKNCVINKVTRNRCQYCRLQKCFEVGMSKESVRND | -0.048 ± 0.058
54 | YKPCCVCQDKSSGYHYGVSACEGCKGFFRRSIQKNMIYTCHRDKNCVINKVTRNRCQYCRLQKCFEVGMSKESVRND | -0.244 ± 0.087
55 | YKPCHVCQDKSSGYHYGVSACEGCKGFFRRSIQKNMIYTCHRDKNCVINKVTRNRCQYCRLQKCFEVGMSKESVRND | -0.435 ± 0.13
56 | YKPCMVCQDKSSGYHYGVSACEGCKGFFRRSIQKNMIYTCHRDKNCVINKVTRNRCQYCRLQKCFEVGMSKESVRND | -0.155 ± 0.065
57 | YKPCPVCQDKSSGYHYGVSACEGCKGFFRRSIQKNMIYTCHRDKNCVINKVTRNRCQYCRLQKCFEVGMSKESVRND | 0.076 ± 0.071
58 | YKPCYVCQDKSSGYHYGVSACEGCKGFFRRSIQKNMIYTCHRDKNCVINKVTRNRCQYCRLQKCFEVGMSKESVRND | -0.043 ± 0.074
59 | YKPCVVCQDKSSGYHYGVSACEGCKGFFRRSIQKNMIYTCHRDKNCVINKVTRNRCQYCRLQKCFEVGMSKESVRND | -0.154 ± 0.045
60 | YKPCGVCQDKSSGYHYGVSACEGCKGFFRRSIQKNMIYTCHRDKNCVINKVTRNRCQYCRLQKCFEVGMSKESVRND | -0.118 ± 0.04
61 | YKPCDVCQDKSSGYHYGVSACEGCKGFFRRSIQKNMIYTCHRDKNCVINKVTRNRCQYCRLQKCFEVGMSKESVRND | -0.314 ± 0.081
62 | YKPCLVCQDKSSGYHYGVSACEGCKGFFRRSIQKNMIYTCHRDKNCVINKVTRNRCQYCRLQKCFEVGMSKESVRND | -0.076 ± 0.045
63 | YKPCKVCQDKSSGYHYGVSACEGCKGFFRRSIQKNMIYTCHRDKNCVINKVTRNRCQYCRLQKCFEVGMSKESVRND | -0.418 ± 0.08
64 | YKPCNVCQDKSSGYHYGVSACEGCKGFFRRSIQKNMIYTCHRDKNCVINKVTRNRCQYCRLQKCFEVGMSKESVRND | -0.39 ± 0.099
65 | YKPCWVCQDKSSGYHYGVSACEGCKGFFRRSIQKNMIYTCHRDKNCVINKVTRNRCQYCRLQKCFEVGMSKESVRND | -0.316 ± 0.069
66 | YKPCAVCQDKSSGYHYGVSACEGCKGFFRRSIQKNMIYTCHRDKNCVINKVTRNRCQYCRLQKCFEVGMSKESVRND | 0.053 ± 0.052
67 | YKPCQVCQDKSSGYHYGVSACEGCKGFFRRSIQKNMIYTCHRDKNCVINKVTRNRCQYCRLQKCFEVGMSKESVRND | -0.046 ± 0.067
68 | YKPCIVCQDKSSGYHYGVSACEGCKGFFRRSIQKNMIYTCHRDKNCVINKVTRNRCQYCRLQKCFEVGMSKESVRND | -0.022 ± 0.073
69 | YKPCRVCQDKSSGYHYGVSACEGCKGFFRRSIQKNMIYTCHRDKNCVINKVTRNRCQYCRLQKCFEVGMSKESVRND | -0.421 ± 0.052
70 | YKPCEVCQDKSSGYHYGVSACEGCKGFFRRSIQKNMIYTCHRDKNCVINKVTRNRCQYCRLQKCFEVGMSKESVRND | -0.38 ± 0.071
71 | YKPCSVCQDKSSGYHYGVSACEGCKGFFRRSIQKNMIYTCHRDKNCVINKVTRNRCQYCRLQKCFEVGMSKESVRND | -0.053 ± 0.047
